The nanobody polyreactivity screen of Harvey et al. (2022)

Assay: yeast display, Sf9 membrane polyspecificity reagent, FACS + sequencing; frameworks hold sequencing errors
Outline: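 Sorting gates, low and high (top ~1%), were placed on anti-HA fluorescence to track expression and on streptavidin fluorescence to track reagent binding. A clone's polyreactivity label is taken from the gate it came out of. The reagent was 10% biotinylated, detergent-solubilized Sf9 membrane, applied for 1 hour at 4 °C to galactose-induced yeast display cells.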

Sequence | polyreactivity (PSR sort gate)
QVQLVESGGGLVQAGGSLRLSCAASGIIFDDYAMGWYRQAPGKERELVAVISSSGGNTYYADSVKGRFTISRDNAKNSVYLQMNSLKPEDTAVYYCAATYYYKSIYWFEYLGQGTQVTVSS | low polyreactivity
QVQLVESGGGSVQAGGSLRLSCAASGRTFVRYAMGWYRQAPGKERELVAAITWSGGSTYYADSVKGRFTISRDNAKNTVYLQMNSLKPEDTAVFDCAAYPVQWGSLYDYWGQGTQVTVSS | high polyreactivity
QVQLVESGGGLVQAGGSLRISCAASGSTLYRNAMGWYRQAPGKERELVAAISRTGGRTYYADSVKGRCTISRDNANNTVYLQMNSLKPEETAVYYCNTLTPSYTSGTHTFYSWGQGTQVTVSS | high polyreactivity
QVQLVKSGGGLVQAGGSLRLSCAASGSTFYNAMGWYRQAPGKERELVAAISIGGSTYYADSVKGRFTISRDNAKNTVYLQMNSLKPEDTAVYYCAAVWYTSRQKYDYWGQGTQVTVSS | low polyreactivity
QVQLVESGGGLVQAGGSLRLSCAASGRTFNWYTMGWYRQAPGKERELVARINGRGGSTYYADSVKGRFTISRDNAKNTVYLQMNSLKPEDTAVYYCAADLHKLARYDYWGQGTQVTVSS | high polyreactivity
QVQLVESGGGLVQAGGSLSIICAASGFTFRYYAMGWYREAPGKERELVAAISKSGTSTYYADSVKGRFTISRDNAKNTVYLQMNSLKPEDTAVYYCAARRGRRYYYWGQGTQVTVSS | high polyreactivity
QVQLVESGGGLVQAGGSLRLSCAASGSIFVLSAMGWYRQAPGKEREFFAAITWSGDSTYYADSVKGRFTISRDNAKNTVYLQMNSLKPEDTAVYYCAAEGNTWPADFLSYYFEFDEYWGQGTQVTVSS | low polyreactivity
QVQLVESGGGLVEAGGSLRLSSAASGINFKMYAMVWSRQAPGKERELVADITYVGSTKYADSVKGRFTISRDNAKNTFYLQMNSLKPEDTAVYYFNAAQYYWYEYDYWGQGTQVTVSS | low polyreactivity
QVQLVESGGGLVQAVGSLRLSCAASGSILASNAMGWYRQAPGKERELVAAITTSGGSTYYADSVKGRFTISRDNAKNTVYLQMNSLKPEDTAVYYCNAEYWLGRWLRYGYWGQGTQVTVSS | high polyreactivity
QVQLVESGGGLVQAGGSLRLSCAASGRTFPSYTMGWYRQAPGKERELVAAITWTGGSTYYADSVKGRFTISRDNAKNTVYLQMNSLKPEDTAVYYCADYDYWGLGTQVTVSS | low polyreactivity
QVQLVESGGGLVQVGGSLRLSCAASGSIFVENAMGWYRQAPGKERELVAAITSGGSTNYADSVKGRFTISRDNAKNTVYLQMNSLKPEDTAVYYCNADENYGYYTHFGYWGQGTQVTVSS | low polyreactivity
QVQLVESGGGLVQAGGSLRLSCAASGITFDANTMGWYRQAPGKERELVAVITDTGSTNYADSVKGRFTISRDNAKNTVYLQMNSLKPEDTAVYYCNADAEPSSGTSANNDYWGQGTQVTVSS | low polyreactivity
QVQLVESGGGLVQAGGSLRLSCAASGFTFGYNEMGWYRQAQGKERELVAGIRSGDDTNYADSVKGRFTISRDNAKNTVYLQMNSLKPEDTAVYYCPRDPQFYLHTVPDGAYNYWGQGTQVTVSS | low polyreactivity
QVQLVESGGGLVQAGGSLRLSCAASGRTLYRYAMGWYRQAPGKERELVATITTGGSTNYADSVKGRFTISRDNAKNTVYLQMNSLKPEDTAVYYCNAGILSRWVRKYYYWGQGTQVTVSS | low polyreactivity
QVQLVESGGGLVKAGGSLRLSCAASGRTFQIYAMGWYRQAPGKESELVAAISRTGASTYYADSVKGRFTISRDKAKNTLFLQLNSLKPEDTAVYYCAANGHCRVYFGGCHWGQGTQVTVSS | high polyreactivity
QVQLVESGGGLVQAAGSLRLSCAASGLTFWKYTMGWNRQAPGKEWELVAAISISGTNTYYADSVKGRFTISRDNAKNTVYLQLNSLKPEDTAVYYCAAVRGYPPTNYYYWGPGTQVTVSS | high polyreactivity
QVQLVETGGGLVQAGGSLRLSCAASGRIFGPYAMGWYRQAPGKERELVAAITWSGVSTYYADSVKGRFTISRDNAKNSVYLQMNSLKQEDTAVYYCAVDPRGHEGVRYNYWGQGTKVTVSS | low polyreactivity
QVQLVESGGGLVQAGGSLRLSCAASGRIFAPNAMGWYRQAPGKERELVAAISFSGDSTSYADSVKGRFTISRDNAKNTVYLQMNSLKPEDTAVYYCATDRRVQYPLGPSYDYDYWGQGTQVTVSS | low polyreactivity
QVQLVESGGGLVQAGGSLRLSCAASGSTFVLNAMGWYRQAPGKERELVAAINLDSGNTNYADSVKGRFTISRDNAKYTVYLQMNSLKPEDTAVYYCNTDVKFGGTAYDYWGQGTQVTVSS | low polyreactivity
QVQLVESGGGLVQAGGSLRLSCAASGSTLYRYAMGWYRQAPGKERELVAAISSSGGSTYYADSVKGRFTISRDNAKNTVYLQMNSLKPEDTAVYYCAAYFSTAPKSQYKLDYWGQGTQVTVSS | high polyreactivity
QVQLVESGGRLVQAGGSLRLSCAASGSIFRANAMVWYRQAPGNERELVAAISPNGGSTYYADSVKGRFTISRDHAKNTVYLQMNSLKPEDTAVYYCNTDHRNIWFRFKYDYWGQGTQVTVSS | high polyreactivity
QVQLVESGGGLVQAGGSLRLSCAASGSTFLHYAMGWYRQAPGKERELVAAISRRGGRTYYADSVKGRFTISRDNAKNTVYLQMNSLKPEDTAVYYCAVDGIRDGYWIFYYWGQGTQVTVSS | low polyreactivity

Sequence | polyreactivity (PSR sort gate)
QVQHVESGGGLVQAGGSLRLSCAASGIIFIVYAMGWYRQAPGKERELVAAISNGGSTYYADSVKGRFTISRDNAKNTVYLQMNSLKPEDTAVYYCAAGGALASQWSKKLYDYWGQGTQVTVSS | low polyreactivity
QVQLVESGGGLVQAGGSLRLSCAASGITSNSYAMGWYRQAPGKERELVATITSGGSTNYADSVKGRFTISRDNAKNSVYLQMNSLKPEDTAVYYCNREDWLPTQYDYWGQGTQVTVSS | low polyreactivity
QVQLVESGGGLVQSGVSLRLSCAASGSIFDPYAMGWYRPAPGKERELVAAITSGGSTYYADSVKGRFTISRDNAKNTVYLQMNSLKPEDTAVYYCAKDFDIYYSKYDYWGQGTQVTVSS | low polyreactivity
QVQLVESGGGLVQAGGSLRLSCAASGFIFEHYAMGWYRQAPGKERELVAAISRTGGRTYYADSVKGRFTISRDNAKNTVYLQMNSLKPEDTAVYYCAATAYSRLGVSSDYWGQGTQVTVSS | high polyreactivity
QGQLVESGGGLVQAGGSLRLSCAASGSIFRSYAMGWYRQAPGKERELVASISRRGGSTYYADSVKGRFTISRDNAKNTVYLQMNSLKPEDTAVYYCAAVRYNSRVSTSPSEMYYWGQGTQVTVSS | low polyreactivity
QVQLVESGVGLVQAGGSLRLTCAASGRIFDYYAMGWSRQAPGKETELVARISRGATTNYADSVKGRFTISRDNAKNTVYLQINSLKPEDTAVYSCNARQYLAYVSWKGMGFWGQGTQVTVSS | high polyreactivity
QFQLVESGRGLVQAGGSLRLICAASGSIFIPYAMGWYRQAPGKERELVAAISSSGSTYYADSVKGRFTISRDNAKNTVYLQMNSLKPEDTAVYYCAAERHYSYSSYDYWGQGTQVTVSS | low polyreactivity
QVQLVESGGGLVQAGGSLRLSCAASGLIFTSYAMGWYRQATGKERELVAAISGSAASTYYADSVKGRFTISRDNAKNTVYLQMNSLKPEDTAVYYCAADYQGYTPSDGRYYWGQGTQVTVSS | low polyreactivity
QVQLVESGGGKVQEGGSLRLSCAASGRTLAPYAMGWYRQAPGKERELVAISTIGGTTYYADSVKGRFTISRDNAKNTVYLQMNSLKPEDTAVYYGAADGNSTGVYLDGGEGFAYDYWGQGTQVTVSS | low polyreactivity
QVQLVETGGGLVQAGGSLRLSCAASGRIFYYYAMGWYRQAPGKERELVAGIDSGDSTNYADSVKGRFTISRDNAKNTVYLQMNSLKPEDTAVYYCAALHYGVYFSYYPYYYWGQGTQVTVSS | low polyreactivity
QVQLVESGGGLVQAGGSLRLSCAASGRIFSRYAMGWYRQAPGKERELVAAITQSGTSTYYADSVKGRFTISRDNAKNTVYLQMNSLKPEDTAVYYCAAAKHSWRPSYYWGGYWGQGTQVTVSS | low polyreactivity
QVQLVESGGGLVQAGGRLRLSCAASGSIFGVYAMGWYRQSPGKERELVATISRSGAITYYADSVKGRFTISRDNAKNTVYLQMNSLKPEDTAVYYCAADFFSRDWGQGTQVTVSS | low polyreactivity
QVQHVDSGGGLVQEGGSLRLSCAASGRIFTYNAMGWYRQAPGKERELVAAISRRGGTTYYADSVKGRFTISRDNAKNTVYLQMNSLKPEDTAVYYCAAVVYTRGVTSRPVSRYDYWGQGTQVTVSS | high polyreactivity
QVQLVESGGGIVQAGGSLRLSCAASGRTFRGNAMGWYRQAPGKERELVAAIRYRGGSTYYADSVKGRFTISRDNAKNTVYLQMNSLKPEDTAVYDCARRYTVHTQHYDYWGQGTEVTVSS | high polyreactivity
QVQLVESGGGLVQAGGSLRLSCAASGNTYTSYAMGWYRQAPGKDRELVAAISASGSSTYYADSVKGRFTISRDNAKNTVYLQMNSLKPEDTAVFYCARQWYWRPGYYMGQGYEYWGQGTQVTVSS | low polyreactivity
QVQLVESGGGLVQAGGSLRLSCAASGLILKYYAMGWDRPAPGTEREFDAALTRRGGITYYADSVKGRFSISRDNAKNTVYLQMNSLKPEDTAVYYCAADPKLGSLAYWRYSYPLYDYWGQGTQVTVSS | low polyreactivity
QVQLVESGGGLVQAGGSLRLSCAASGRTISYNTMGWYRQARGKERELVARITWGGGSTNYADSVKGSFTISRDNAKNTVYLQMNSLKPEDTAVYYCAREYSSVYWVRHLFYYWGQGTQVTVSS | low polyreactivity
QVQLVESGGGLVQAGGSLRLSCAASGITFFAYAMGWYRQPPGKERELVAAISSGGSTNYADSVKGRFTISRDNAKNTVYLQMNSLKPEDTAVYYCAAVRSDLGEEGYAGYVYWGQGTQVTVSS | low polyreactivity
QVQLVESGGGLFKAGGSLRLSCAASGRTFRGYTMGWYRQAPGKERELVAAITSGTRTNYADSVKGRFTISRDNAKNTVYLQMNSLKPEYTAVYYGAARDYIRPRYRPYDYWGHGTQVTVSS | high polyreactivity
QVQLVESGGGLVQAGGSLRLSCAASGSIFFNTMGWYIQAPGKERELVAAISRSGGSTYYADSVKGRFTISRDNAKNTVYLQMNSLKPEDTAVYYCNALRWSQYTYSSRLGHFDSWGQGTQVTVSS | high polyreactivity
QVQLVDSGGGLVQAGGSLRLSCAASGSTFVYYAMGWYRQAPGKERELVAAISSGGRTYYADSVKGRFTISRDNAKNTVYFQMNSLKPEDTAVYYCATYPRYSKSPGYDSWGQGTQVTVSS | high polyreactivity
